One molecule from patent publication US20200016201A1, “CHIMERIC ANTIGEN RECEPTORS AND COMPOSITIONS AND METHODS OF USE THEREOF” (published 2020) can be followed below.

This experiment concerns the target Lym-1 antigen (HLA-Dr10) on Raji cells (human). The experiment can be described thus: avidity constant, Scatchard plot analysis on the target tumor cell line (Raji).

B1: Lym-1 (antibody, V domains shown)
VH: QLKESGPGLVAPSQSLSITCTISGFSLTSYGVHWVRQPPGKGLEWLVVIWSDGSTTYNSALKSRLSISKDNSKSQVFLKMNSLQTDDTAIYYCASHYGSTLAFASWGHGTLVTVSA
VL: DIQMTQSPASLSASVGETVTIICRASVNIYSYLAWYQQKQGKSPQLLVYNAKILAEGVPSRFSGSGSGTQFSLKINSLQPEDFGSYYCQHHYGTFTFGSGTKLEIK
For B1, the Ka came to 4.02e+08 M⁻¹.
